Common to all, as to assay: fluorescence polarisation; fluorescence anisotropy, direct titration: 14-3-3 protein titrated (1/2 dilution series) against 50 nM FAM-Ahx tracer peptide; 10 mM HEPES, 150 mM NaCl, 0.1% Tween 20, 0.1% BSA, pH 7.4; 384 well plates, triplicates; protein concentration as 14-3-3 monomer; 1:1 fit, biphasic curves fitted as two separate 1:1 events (Kd1, Kd2)
What all share (settings): both partners purified
Background: In fluorescence polarisation assays a small probe gives low polarisation when free and higher when bound to something large.

One assay addresses T1, 14‐3‐3ζ (human, UniProt P63104 1-245).
T1 construct: 14-3-3 zeta, human, full-length protein from the pProEx HTb-His-14-3-3 construct; Written as the protomer; tag removal is told only for the ∆C proteins; source: E. coli BL21(DE3), purified (Ni2+-NTA, dialysis)
T1 sequence (looked up): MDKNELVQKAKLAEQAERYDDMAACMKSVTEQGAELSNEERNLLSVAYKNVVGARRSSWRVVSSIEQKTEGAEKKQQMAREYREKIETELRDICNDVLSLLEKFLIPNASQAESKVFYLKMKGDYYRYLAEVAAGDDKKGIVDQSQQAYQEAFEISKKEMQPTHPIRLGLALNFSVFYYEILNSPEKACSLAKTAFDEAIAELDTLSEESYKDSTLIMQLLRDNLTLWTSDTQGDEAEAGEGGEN

For another assay, the target named is T2, 14‐3‐3ε (human, UniProt P62258 1-255).
T2 construct: 14-3-3 epsilon, human, full-length protein from the pProEx HTb-His-14-3-3 construct; Written as the protomer; tag removal is told only for the ∆C proteins; source: E. coli BL21(DE3), purified (Ni2+-NTA, dialysis)
T2 sequence (looked up): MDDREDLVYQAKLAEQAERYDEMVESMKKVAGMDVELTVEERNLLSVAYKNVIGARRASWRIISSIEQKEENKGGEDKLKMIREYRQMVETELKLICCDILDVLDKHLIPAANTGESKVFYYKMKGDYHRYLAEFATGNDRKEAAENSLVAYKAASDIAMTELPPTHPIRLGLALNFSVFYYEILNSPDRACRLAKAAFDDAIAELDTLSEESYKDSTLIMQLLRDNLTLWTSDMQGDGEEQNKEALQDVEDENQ

The target of a further assay is T3, 14‐3‐3β (human, UniProt P31946 1-246).
T3 construct: 14-3-3 beta, human, full-length protein from the pProEx HTb-His-14-3-3 construct; Written as the protomer; tag removal is told only for the ∆C proteins; source: E. coli BL21(DE3), purified (Ni2+-NTA, dialysis)
T3 sequence (looked up): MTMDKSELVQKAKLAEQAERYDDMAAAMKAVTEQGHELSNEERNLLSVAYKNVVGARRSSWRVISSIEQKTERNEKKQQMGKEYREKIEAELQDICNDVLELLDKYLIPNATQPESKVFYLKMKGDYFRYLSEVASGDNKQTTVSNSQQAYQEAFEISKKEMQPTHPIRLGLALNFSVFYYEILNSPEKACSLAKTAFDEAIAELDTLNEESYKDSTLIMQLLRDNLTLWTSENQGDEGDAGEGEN

The target in another assay is T4, 14‐3‐3η (human, UniProt Q04917 1-246).
T4 construct: 14-3-3 eta, human, full-length protein from the pProEx HTb-His-14-3-3 construct; Captured on an NTA chip in SPR; source: E. coli BL21(DE3), purified (Ni2+-NTA, dialysis)
T4 sequence (looked up): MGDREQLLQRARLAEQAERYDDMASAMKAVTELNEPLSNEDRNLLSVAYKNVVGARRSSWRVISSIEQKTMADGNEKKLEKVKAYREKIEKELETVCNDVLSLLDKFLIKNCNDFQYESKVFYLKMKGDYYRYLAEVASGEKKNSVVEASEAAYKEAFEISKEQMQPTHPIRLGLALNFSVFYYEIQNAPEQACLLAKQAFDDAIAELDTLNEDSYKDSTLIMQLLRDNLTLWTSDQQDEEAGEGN

Another assay has as its target T5, 14‐3‐3τ (human, UniProt P27348 1-245).
T5 construct: 14-3-3 tau/theta, human, full-length protein from the pProEx HTb-His-14-3-3 construct; Written as the protomer; tag removal is told only for the ∆C proteins; also called τ/θ; source: E. coli BL21(DE3), purified (Ni2+-NTA, dialysis)
T5 sequence (looked up): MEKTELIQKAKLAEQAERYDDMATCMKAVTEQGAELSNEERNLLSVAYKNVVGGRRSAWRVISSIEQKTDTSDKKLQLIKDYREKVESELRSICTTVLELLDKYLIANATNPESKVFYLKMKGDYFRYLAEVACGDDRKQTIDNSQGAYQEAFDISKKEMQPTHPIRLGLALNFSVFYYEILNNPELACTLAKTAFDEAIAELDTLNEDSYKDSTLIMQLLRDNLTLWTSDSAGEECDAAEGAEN

[ ]: non-standard residue; d: D form. pS = N[C@@H](COP(=O)(O)O)C(=O)O; FAM = 5,6-carboxyfluorescein; Ahx = NCCCCCC(=O)O

B1: FAM‐Ahx‐hDM2_(180‐192) ^pSer186 (peptide)
peptide: {FAM-Ahx}-QRKRHK[pS]DSISLS-NH2
notes: hDM2 (human double minute 2 protein), human, residues 180-192; Tracer form used in the FA assays; source: synthetic peptide (Fmoc SPPS, HPLC purified)
Consider B1, for which the Kd is 166 ± 5.6 µM with 14‐3‐3ζ; more than 260 µM with 14‐3‐3ε; 208 ± 6.3 µM with 14‐3‐3β; 31.6 ± 1.9 µM with 14‐3‐3η; more than 250 µM with 14‐3‐3τ.

B2: FAM‐Ahx‐hDMX_(361‐374) ^pSer367 (peptide)
peptide: {FAM-Ahx}-DCRRTI[pS]APVVRPK-NH2
notes: Tracer form used in the FA assays; source: synthetic peptide (Fmoc SPPS, HPLC purified)
Take B2: the Kd was 0.92 ± 0.03 µM with 14‐3‐3ζ; 2.7 ± 0.2 µM with 14‐3‐3ε; 0.51 ± 0.02 µM with 14‐3‐3β; 0.099 ± 0.005 µM in the assay with 14‐3‐3η; 1.2 ± 0.2 µM with 14‐3‐3τ.

B3: FAM‐Ahx‐hDM2_(160‐171) ^pSer166 (peptide)
peptide: {FAM-Ahx}-SRRRAI[pS]ETEEN-NH2
notes: hDM2 (human double minute 2 protein), human, residues 160-171; Tracer form used in the FA assays; also called hDM2_(160‐171) ^Ser166; source: synthetic peptide (Fmoc SPPS, HPLC purified)
Take B3: the Kd with 14‐3‐3ζ is 19.6 ± 0.2 µM; with 14‐3‐3ε, 23 ± 1.2 µM; with 14‐3‐3β, 11.1 ± 0.5 µM; in the assay with 14‐3‐3η it was 10.2 ± 0.3 µM; with 14‐3‐3τ, 29.3 ± 2.4 µM.

B4: FAM‐Ahx‐hDMX_(335‐349) ^pSer342 (peptide)
peptide: {FAM-Ahx}-SKLTHSL[pS]TSDITAI-NH2
notes: hDMX (human double minute 4 protein, hDM4), human, residues 335-349; Tracer form used in the FA assays; source: synthetic peptide (Fmoc SPPS, HPLC purified)
Regarding B4, the Kd with 14‐3‐3ζ was found to be 95.8 ± 3.6 µM; in the assay with 14‐3‐3ε, 53.4 ± 2.9 µM; with 14‐3‐3β it was 49.4 ± 11.5 µM; with 14‐3‐3η, 20 ± 1.2 µM; with 14‐3‐3τ, 108 ± 6 µM.

The term Kd denotes the equilibrium constant for the complex coming apart. High values mean a looser complex, low ones a tighter complex.

The values above are taken from paper PMC9541495, “Understanding the interaction of 14‐3‐3 proteins with hDMX and hDM2: a structural and biophysical study” (The Febs Journal, 2022).
